This is an account of results in US11167048B2, “Dual targeting ligand for cancer diagnosis and treatment” (priority 2018, dated 2021).

One series addresses T1, PSMA (Homo sapiens, UniProt Q04609).
T1 construct: endogenous in cells; host or cells: LNCaP human prostate cancer cells, homogenized cell membranes
In words: NAALADase assay with LNCaP homogenized cell membranes and [N-acetyl aspartyl ^3H-glutamate]. To be noted: LNCaP homogenized cell membranes, read-out: IC50 LNCaP cells. The format is binding. As for the experimental part: (§1) (NAAG) as the radioligands. […] After incubation, the reaction medium was aspirated and the cells were rinsed three times with cold media. Cell-associated radioactivity was determined using a Packard Riastar gamma counter. […] The enzymatic reaction was stopped by addition of 50 μL of cold sodium phosphate buffer (0.1 M, pH=7.4). […] Scintillation cocktail was added to each fraction and the amount of radioactivity in each was determined by liquid scintillation counting.
(§2) (NAAG) as the radioligands. […] After incubation, the reaction medium was aspirated and the cells were rinsed three times with cold media. Cell-associated radioactivity was determined using a Packard Riastar gamma counter. […] For the PSMA-positive assay, the binding affinity was measured using the N-acetylated-α-linked acidic dipeptidase (NAALADase) assay. […] The enzymatic reaction was stopped by addition of 50 μL of cold sodium phosphate buffer (0.1 M, pH=7.4). […] Columns were pre-equilibrated with 0.2 M HCl prior to loading of the reaction mixture. […] Scintillation cocktail was added to each fraction and the amount of radioactivity in each was determined by liquid scintillation counting.

In a further series the target is T2, GRPR (Homo sapiens, UniProt P30550).
T2 construct: endogenous in cells; host or cells: PC-3 human prostate cancer cells (intact cells)
T2 sequence (P30550 whole entry): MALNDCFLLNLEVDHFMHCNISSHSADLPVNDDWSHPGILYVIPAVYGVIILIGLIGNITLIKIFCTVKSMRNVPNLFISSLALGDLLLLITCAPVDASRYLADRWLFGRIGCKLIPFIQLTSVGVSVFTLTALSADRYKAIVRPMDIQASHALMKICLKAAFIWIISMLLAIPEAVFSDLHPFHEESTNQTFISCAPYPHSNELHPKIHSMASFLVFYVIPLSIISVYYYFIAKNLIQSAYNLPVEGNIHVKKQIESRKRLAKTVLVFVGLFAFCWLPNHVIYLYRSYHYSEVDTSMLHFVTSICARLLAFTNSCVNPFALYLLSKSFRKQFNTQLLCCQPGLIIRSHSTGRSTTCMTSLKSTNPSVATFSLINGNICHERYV
In words: Competitive displacement binding assay in GRPR-positive PC-3 cells with [^125I-(Tyr4)-BBN]. As to conditions: radioligand [^125I-(Tyr4)-BBN], 1 h, 37° C., read-out: IC50 PC3 cells. As for the experimental part:
as §1, §2

A further series deals with metastatic disease. As to conditions: ^68Ga-labeled agent; cited from earlier work.
Series [1] can be described thus: in vivo. To be noted: CF-1, mouse, iv, total radioactivity. More on the design: species or system CF-1 normal mice.
Series [2] can be described thus: in vivo. The arrangement: species or system ICR-SCID male mice. To be noted: male, ICR-SCID, mouse, iv, total radioactivity, Brain uptake.
Series [3] can be described thus: in vivo. The arrangement: species or system ICR-SCID male mice. As to conditions: male, ICR-SCID, mouse, iv, total radioactivity, Pancreas uptake.
The test system of another series is prostate tumors. As to conditions: newly diagnosed PCa patients; cited from earlier work.

T1 sequence (Q04609 whole entry): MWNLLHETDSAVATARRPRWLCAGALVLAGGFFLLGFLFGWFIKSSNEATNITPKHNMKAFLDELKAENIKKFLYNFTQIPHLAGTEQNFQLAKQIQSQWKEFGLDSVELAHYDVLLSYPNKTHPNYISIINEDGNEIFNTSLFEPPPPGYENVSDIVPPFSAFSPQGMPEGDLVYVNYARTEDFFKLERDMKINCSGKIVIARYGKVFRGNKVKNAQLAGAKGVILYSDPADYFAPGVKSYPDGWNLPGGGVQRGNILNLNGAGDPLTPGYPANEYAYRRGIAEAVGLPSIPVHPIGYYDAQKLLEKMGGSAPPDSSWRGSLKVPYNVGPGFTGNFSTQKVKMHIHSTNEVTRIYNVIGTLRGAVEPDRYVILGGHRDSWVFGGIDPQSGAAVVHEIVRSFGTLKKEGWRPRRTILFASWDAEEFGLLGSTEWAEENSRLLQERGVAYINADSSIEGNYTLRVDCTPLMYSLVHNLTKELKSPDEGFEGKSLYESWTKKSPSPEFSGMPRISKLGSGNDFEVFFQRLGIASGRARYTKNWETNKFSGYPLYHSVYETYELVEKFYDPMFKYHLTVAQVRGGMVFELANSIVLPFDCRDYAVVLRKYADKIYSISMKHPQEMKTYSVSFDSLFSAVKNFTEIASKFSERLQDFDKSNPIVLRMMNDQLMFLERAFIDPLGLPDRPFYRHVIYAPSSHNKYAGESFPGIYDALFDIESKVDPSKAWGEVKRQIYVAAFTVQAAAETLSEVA

One may read the IC50 as the midpoint of a concentration-inhibition curve. Consider [DUPA-6-Ahx-Lys(M-DOTA)-6-Ahx-RM2], for which the results for the IC50 at PSMA and at GRPR were 0.0093 ± 0.00232 µM and 0.00399 ± 0.0018 µM, respectively.

Regarding `CC(C)C[C@H](NC(=O)C[C@H](O)[C@H](CC(C)C)NC(=O)[C@H](Cc1c[nH]cn1)NC(=O)CNC(=O)[C@@H](NC(=O)[C@H](C)NC(=O)[C@H](Cc1c[nH]c2ccccc12)NC(=O)[C@H](CCC(N)=O)NC(=O)[C@@H](Cc1ccccc1)NC(=O)CCCCCNC(=O)[C@H](CCCCNC(=O)CN1CCN(CC(=O)O)CCN(CC(=O)O)CCN(CC(=O)O)CC1)NC(=O)CCCCCNC(=O)CC[C@H](NC(=O)N[C@@H](CCC(=O)O)C(=O)O)C(=O)O)C(C)C)C(N)=O` [[DUPA-6-Ahx-[^natLu-DOTA]-6-Ahx-RM2]] [metal not drawn], the IC50 on PSMA came out at 0.0139 ± 0.00253 µM.

With `CC(C)C[C@H](NC(=O)C[C@H](O)[C@H](CC(C)C)NC(=O)[C@H](Cc1c[nH]cn1)NC(=O)CNC(=O)[C@@H](NC(=O)[C@H](C)NC(=O)[C@H](Cc1c[nH]c2ccccc12)NC(=O)[C@H](CCC(N)=O)NC(=O)[C@@H](Cc1ccccc1)NC(=O)CCCCCCCNC(=O)[C@H](CCCCNC(=O)CN1CCN(CC(=O)O)CCN(CC(=O)O)CCN(CC(=O)O)CC1)NC(=O)CCCCCNC(=O)CC[C@H](NC(=O)N[C@@H](CCC(=O)O)C(=O)O)C(=O)O)C(C)C)C(N)=O` [[DUPA-6-Ahx-[^natLu-DOTA]-8-Aoc-RM2]] [metal not drawn], on PSMA, the IC50 was found to be 0.016 ± 0.00279 µM.

Take “DOTA-p-aminomethylaniline-diglycolic acid-DPhe-Gln-Trp-Ala-Val-Gly-His-Leu-NHEt (FQWAVGHL; DOTA-p-aminomethylaniline-diglycolic acid N-term, C-terminal NHEt; (1)..(1) D-phenylalanine; (1)..(1) DOTA-p-aminomethylaniline-diglycolic acid linked to D-Phenylalanine) [SB3]”: the “Metastatic disease detected, fraction of patients” value with metastatic disease is recorded as 5/9.

By tissue uptake is commonly meant the percentage of the injected dose found per gram of tissue. Turning to `CC(C)C[C@H](NC(=O)C[C@H](O)[C@H](CC(C)C)NC(=O)[C@H](Cc1c[nH]cn1)NC(=O)CNC(=O)[C@@H](NC(=O)[C@H](C)NC(=O)[C@H](Cc1c[nH]c2ccccc12)NC(=O)[C@H](CCC(N)=O)NC(=O)[C@@H](Cc1ccccc1)NC(=O)CCCCCNC(=O)[C@H](CCCCNC(=O)CN1CCN(CC(=O)O)CCN(CC(=O)O)CCN(CC(=O)O)CC1)NC(=O)CCCCCNC(=O)CC[C@H](NC(=O)N[C@@H](CCC(=O)O)C(=O)O)C(=O)O)C(C)C)C(N)=O` [DUPA-6-Ahx-Lys(^111In-DOTA)-6-Ahx-RM2, metal not drawn], the tissue uptake at 1 h in the series “in vivo [1]” (Bone uptake) came to 0.08 ± 0.06 %ID/g; in the series “in vivo [1]” (Brain uptake), 0.03 ± 0.04 %ID/g; in the series “in vivo [1]” (Heart uptake) it was 0.16 ± 0.22 %ID/g; in the series “in vivo [1]” (Kidneys uptake), 2.84 ± 0.64 %ID/g; in the series “in vivo [1]” (L. Intestine uptake), 0.14 ± 0.12 %ID/g; in “in vivo [1]” (Liver uptake), 0.23 ± 0.14 %ID/g. Moreover, the tissue uptake at 1 h in “in vivo [1]” (Lung uptake) was determined as 0.86 ± 0.7 %ID/g; in “in vivo [1]” (Muscle uptake) it was 0.07 ± 0.07 %ID/g; in the series “in vivo [1]” (Pancreas uptake), 0.19 ± 0.19 %ID/g; in “in vivo [1]” (S. Intestine uptake), 0.22 ± 0.13 %ID/g; in the series “in vivo [1]” (Spleen uptake) it was 0.12 ± 0.13 %ID/g; in “in vivo [1]” (Stomach uptake), 0.14 ± 0.11 %ID/g.

As for `CC(C)C[C@H](NC(=O)C[C@H](O)[C@H](CC(C)C)NC(=O)[C@H](Cc1c[nH]cn1)NC(=O)CNC(=O)[C@@H](NC(=O)[C@H](C)NC(=O)[C@H](Cc1c[nH]c2ccccc12)NC(=O)[C@H](CCC(N)=O)NC(=O)[C@@H](Cc1ccccc1)NC(=O)CCCCCCCNC(=O)[C@H](CCCCNC(=O)CN1CCN(CC(=O)O)CCN(CC(=O)O)CCN(CC(=O)O)CC1)NC(=O)CCCCCNC(=O)CC[C@H](NC(=O)N[C@@H](CCC(=O)O)C(=O)O)C(=O)O)C(C)C)C(N)=O` [DUPA-6-Ahx-Lys(^111In-DOTA)-8-Aoc-RM2, metal not drawn], the tissue uptake at 24 h in the series “in vivo [2]” is 0.01 %ID/g. For the same compound, the tissue uptake at 4 h in the series “in vivo [3]” was 0.58 ± 0.1 %ID/g. In addition, the tissue uptake at 1 h in “in vivo [1]” (Bone uptake) stood at 0.14 ± 0.04 %ID/g; in “in vivo [1]” (Brain uptake) it was 0.02 %ID/g; in “in vivo [1]” (Heart uptake), 0.2 ± 0.14 %ID/g; in “in vivo [1]” (Kidneys uptake), 1.37 ± 0.31 %ID/g; in “in vivo [1]” (L. Intestine uptake), 0.49 ± 0.25 %ID/g; in the series “in vivo [1]” (Liver uptake) it was 0.38 ± 0.04 %ID/g. Also, the tissue uptake at 1 h in the series “in vivo [1]” (Lung uptake) was determined as 0.37 ± 0.03 %ID/g; in “in vivo [1]” (Muscle uptake), 0.1 ± 0.01 %ID/g; in “in vivo [1]” (Pancreas uptake), 5.45 ± 0.47 %ID/g; in the series “in vivo [1]” (Spleen uptake), 0.49 ± 0.34 %ID/g; in “in vivo [1]” (Stomach uptake) it was 1.73 ± 2.49 %ID/g.

For the compound ^64Cu-CB-TE2A-AR06, in the series on prostate tumors, the “High contrast imaging of prostate tumors, fraction of men” value was “¾”.

Regarding `CC(C)C[C@H](NC(=O)C[C@H](O)[C@H](CC(C)C)NC(=O)[C@H](Cc1c[nH]cn1)NC(=O)CNC(=O)[C@@H](NC(=O)[C@H](C)NC(=O)[C@H](Cc1c[nH]c2ccccc12)NC(=O)[C@H](CCC(N)=O)NC(=O)[C@@H](Cc1ccccc1)NC(=O)c1ccc(NC(=O)[C@H](CCCCNC(=O)CN2CCN(CC(=O)O)CCN(CC(=O)O)CCN(CC(=O)O)CC2)NC(=O)CCCCCNC(=O)CC[C@H](NC(=O)N[C@@H](CCC(=O)O)C(=O)O)C(=O)O)cc1)C(C)C)C(N)=O` [DUPA-6-Ahx-Lys(^111In-DOTA)-AMBA-RM2, metal not drawn], the tissue uptake at 1 h in “in vivo [1]” (Bone uptake) came to 0.06 ± 0.04 %ID/g; in the series “in vivo [1]” (Brain uptake), 0.02 ± 0.01 %ID/g; in “in vivo [1]” (Heart uptake) it was 0.12 ± 0.05 %ID/g; in the series “in vivo [1]” (Kidneys uptake), 1.37 ± 0.31 %ID/g; in “in vivo [1]” (L. Intestine uptake) it was 0.09 ± 0.02 %ID/g; in the series “in vivo [1]” (Liver uptake) it was 0.28 ± 0.04 %ID/g. Besides, the tissue uptake at 1 h came out at 1.01 ± 1.15 %ID/g in “in vivo [1]” (Lung uptake); 0.08 ± 0.02 %ID/g in “in vivo [1]” (Muscle uptake); 0.24 ± 0.06 %ID/g in the series “in vivo [1]” (Pancreas uptake); 0.2 ± 0.04 %ID/g in the series “in vivo [1]” (S. Intestine uptake); 0.15 ± 0.04 %ID/g in “in vivo [1]” (Spleen uptake); 0.15 ± 0.06 %ID/g in the series “in vivo [1]” (Stomach uptake).

On to `CC(C)C[C@H](NC(=O)C[C@H](O)[C@H](CC(C)C)NC(=O)[C@H](Cc1c[nH]cn1)NC(=O)CNC(=O)[C@@H](NC(=O)[C@H](C)NC(=O)[C@H](Cc1c[nH]c2ccccc12)NC(=O)[C@H](CCC(N)=O)NC(=O)[C@@H](Cc1ccccc1)NC(=O)CCCCNC(=O)[C@H](CCCCNC(=O)CN1CCN(CC(=O)O)CCN(CC(=O)O)CCN(CC(=O)O)CC1)NC(=O)CCCCCNC(=O)CC[C@H](NC(=O)N[C@@H](CCC(=O)O)C(=O)O)C(=O)O)C(C)C)C(N)=O` [DUPA-6-Ahx-Lys(^111In-DOTA)-5-Ava-RM2, metal not drawn], for which the tissue uptake at 1 h was determined as 0.09 ± 0.06 %ID/g in “in vivo [1]” (Bone uptake); 0.02 ± 0.01 %ID/g in the series “in vivo [1]” (Brain uptake); 0.11 ± 0.06 %ID/g in the series “in vivo [1]” (Heart uptake); 4.92 ± 0.84 %ID/g in “in vivo [1]” (Kidneys uptake); 0.12 ± 0.05 %ID/g in the series “in vivo [1]” (L. Intestine uptake); 0.15 ± 0.05 %ID/g in the series “in vivo [1]” (Liver uptake). Moreover, the tissue uptake at 1 h stood at 0.68 ± 0.25 %ID/g in the series “in vivo [1]” (Lung uptake); 0.06 ± 0.04 %ID/g in “in vivo [1]” (Muscle uptake); 1.02 ± 0.37 %ID/g in “in vivo [1]” (Pancreas uptake); 0.26 ± 0.09 %ID/g in “in vivo [1]” (S. Intestine uptake); 0.13 ± 0.05 %ID/g in “in vivo [1]” (Spleen uptake); 0.23 ± 0.18 %ID/g in the series “in vivo [1]” (Stomach uptake).
